Reference: patent US7169567B1, “Screening assay utilizing the PTH receptor” (The General Hospital Corporation, priority 1998, dated 2007)
Where no end group is shown, it is not given here.

What was measured:
Type in all cases: cell-based
human PTH-1 receptor = target: T1, human PTH-1 receptor (Homo sapiens, UniProt Q03431); experiment: cAMP-stimulating activity in HKRK-B7 cells (LLC-PK1 stably transfected with human PTH-1 receptor), RIA; details: HKRK-B7 cells
T1 construct: expressed in transfected cells; host or cells: HKRK-B7 (LLC-PK1 stably transfected, pCDNA-1-based plasmid)
T1 sequence (Q03431 27-593): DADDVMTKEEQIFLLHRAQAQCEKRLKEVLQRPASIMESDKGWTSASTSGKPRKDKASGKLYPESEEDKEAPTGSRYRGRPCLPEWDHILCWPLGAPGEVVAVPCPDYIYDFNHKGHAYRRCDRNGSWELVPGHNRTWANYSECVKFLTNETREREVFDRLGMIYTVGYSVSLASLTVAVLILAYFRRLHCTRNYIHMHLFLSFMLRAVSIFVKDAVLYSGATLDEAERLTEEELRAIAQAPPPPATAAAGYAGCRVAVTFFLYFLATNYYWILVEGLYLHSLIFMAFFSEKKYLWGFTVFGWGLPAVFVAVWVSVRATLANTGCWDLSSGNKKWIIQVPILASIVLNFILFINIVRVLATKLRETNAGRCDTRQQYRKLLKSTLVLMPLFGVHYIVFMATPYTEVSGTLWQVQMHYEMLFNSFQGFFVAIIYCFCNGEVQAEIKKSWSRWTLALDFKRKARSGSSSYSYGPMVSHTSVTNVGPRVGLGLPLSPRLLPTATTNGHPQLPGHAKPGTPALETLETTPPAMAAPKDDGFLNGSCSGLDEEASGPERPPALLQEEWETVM
Description: FIG. 2. cAMP-stimulating Activity of PTH Fragments in LLC-PK1 Cells. A) Rat PTH(1–34) analog or amino-terminal rPTH fragments were tested for cAMP-stimulating activity in an LLC-P1-derived cell line (HKRK-B7) stably transfected with the human PTH-1 receptor. Cells were treated with peptide at the indicated doses for 60 min at 22° C. Intracellular cAMP was measured by RIA, as described in Experimental Procedures. Shown are combined data (mean±s.e.m.) from 3 separate experiments, each performed in duplicate. B) HKRK-B7 cells, or untransfected LLC-PK1 were treated with rPTH(1–34) or rPTH(1–14), and intracellular cAMP was measured. Shown are data (mean±s.e.m.) from a single representative experiment performed in duplicate.
FIG. 3. Alanine-scan of PTH(1–14). HKRK-B7 cells were treated with 100 mM of one of 14 different rPTH(1–14) analogs, each having a different alanine-substitution at the indicated amino acid position. The resulting cAMP levels were determined as described in Experimental Procedures. Shown are the combined data (mean±s.e.m.) from three separate experiments, each performed in duplicate. The mean (mean±s.e.m.) basal cAMP levels observed in the three experiments was 2.1±0.1 pmole/well, and the maximum response to rPTH(1–34) at 0.1 mM was 254±16 pmole/well.
Cell Culture and DNA Transfection: COS-7 and HKRK-B7 cells were cultured at 37° C. in Dulbecco's modified Eagle's medium (DMEM) supplemented with fetal bovine serum (10%); penicillin G (20 units/ml), streptomycin sulfate (20 μg/ml) and amphotericin B (0.05 μg/ml) in a humidified atmosphere containing 5% CO2. Twenty-four to 16 hours prior to assay, cells in 24-well plates were shifted to a humidified incubator containing 5% CO2 that was set at 33° C. Stock solutions of EGTA/trypsin and antibiotics were from GIBCO; fetal bovine serum was from Hyclone Laboratories (Logan, Utah). Derivation and characterization of the HKRK-B7 cell line by stable transfection of LLC-PK1 cells with a pCDNA-1-based plasmid (In Vitrogen, San Diego, Calif.) encoding the hPTH-1 receptor was described previously (Takasu, H. and Bringhurst, F., Endocrinology, in press (1998)). These cells express PTH-1 receptors at a surface density of about 1×10^6 PTH-binding sites per cell. The HKRK-B7 cells were used for functional assays 24 to 72 hours after the cell monolayer reached confluency.
(§1) Intracellular cyclic AMP: Transfected COS-7 or HKRK-B7 cells were rinsed with 500 ml of binding buffer, (50 mM Tris-HCl, pH 7.7, 100 mM NaCl, 5 mM KCl, 2 mM CaC12, 5% heat-inactivated horse serum, 0.5% heat-inactivated fetal bovine serum) and 200 ml of IBMX buffer (DMEM containing 2 mM IBMX, 1 mg/ml bovine serum albumin, 35 mM Hepes-NaOH, pH 7.4) and […] of binding buffer or binding buffer containing various amounts of peptide were added. The plates were incubated for 60 minutes at room temperature. The buffer was then withdrawn and the cells were frozen on dry ice, treated with 0.5 ml of 50 mM HCl, and refrozen. After the thawing, the lysate was diluted 30-fold in dH20 and an aliquot was analyzed for cAMP content by determined radioimmunoassay using unlabeled cAMP as a standard.
Amino-terminal peptide fragments based on the rat PTH sequence and ranging in length from PTH(1–9) to PTH(1–15) were synthesized and tested for activity in an LLC-PK1-derived cell line called HKRK-B7 which stably expresses high levels (1×10^6 receptors/cell) of the cloned human PTH-1 receptor (Takasu, H. and Bringhurst, F., Endocrinology, in press (1998)).

[1] = target: T2, truncated rat PTH-1 receptor (rΔNt) (Rattus norvegicus, UniProt P25961, E586G); experiment: cAMP response in COS-7 cells transiently transfected with truncated rat PTH-1 receptor (rΔNt); details: secretin(1–27) 1 mM
T2 construct: contains an open reading frame encoding a protein of about 435 amino acid residues; expressed in transfected cells; host or cells: COS-7, transient (DEAE-dextran), pCDNA-1 based plasmid
T2 sequence (P25961 with tags, fused parts or gaps E586G): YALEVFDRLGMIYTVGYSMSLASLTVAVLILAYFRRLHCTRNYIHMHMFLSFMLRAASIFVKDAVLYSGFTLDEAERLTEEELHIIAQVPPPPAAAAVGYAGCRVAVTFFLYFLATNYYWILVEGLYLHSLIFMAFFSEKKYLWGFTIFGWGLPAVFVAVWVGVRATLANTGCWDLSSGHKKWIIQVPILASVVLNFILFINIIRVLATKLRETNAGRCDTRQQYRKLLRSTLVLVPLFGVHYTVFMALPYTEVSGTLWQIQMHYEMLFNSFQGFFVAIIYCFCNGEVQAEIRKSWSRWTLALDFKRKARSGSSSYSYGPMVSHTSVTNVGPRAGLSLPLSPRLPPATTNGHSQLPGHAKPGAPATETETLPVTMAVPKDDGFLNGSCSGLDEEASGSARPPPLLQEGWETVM
Text: FIG. 4. PTH Responses of Intact and Truncated PTH-1 Receptors in COS-7 Cells. Shown at the top are schematics of the intact (A) and truncated (B) rat PTH-1 receptors used for transient transfection of COS-7 cells, and subsequent cAMP response assays. The conserved extracellular cysteine residues are depicted as open circles and numbered according to sequence position, and the nine amino acids of the epitope tag (HA) in rWT-HA are shaded. The tics at residue 26 and 181 indicate the endpoints of the deletion in rΔNt. Based on the predicted signal peptide cleavage site at Ala-22, residues 23–25 in rΔNt are joined to residue 182. The cAMP responses of COS-7 cells expressing the intact receptor (C) and rΔNt (D) to rPTH(1–34) (J) or rPTH(1–14) (C) are also shown. The graphs show combined data (mean±s.e.m.) from five separate experiments, each performed in duplicate. […]
FIG. 6. Specificity of the Truncated Ligand and PTH Receptor. COS-7 cells transiently transfected with either rWT-HA (A), rΔNt (B), or the intact rat secretin receptor (C), were treated with the indicated peptides for 60 min at 22° C., and the resulting intracellular cAMP levels were quantified by RIA. Concentration of peptides present during the incubations were: rPTH(1–34), 0.1 mM; rPTH(1–14) 100 mM; secretin(1–27). […] Shown are data (mean±s.e.m.) from one experiment performed in duplicate, and this was repeated twice more with equivalent results.
For studies with the intact and truncated rat PTH-1 receptors, transient transfections of COS-7 cells were performed using DEAE-dextran as described previously (Bergwitz, C., et al., J. Biol. Chem. 272:28861–28868)). The construction and initial characterization of the pCDNA-1 based plasmids encodin either the intact or truncated rat PTH-1 receptor has been described previously (Lee, C., et al., Endocrinology 135(4):1488–1495)). […] The truncated rat PTH-1 receptor (rΔNt) is deleted for exons E1 through exon G (residues 26 to 181). Assuming that signal peptidase cleavage occurs between Ala-22 and Tyr-23 (Nielsen, H., et al., Protein Engineering 10:1–6 (1997)), rΔNt is predicted to have for its N-terminus residues Dautzenberg, F., et al., Proc. Natl. Acad. Sci. 95:4941–4946 (1998); Holtmann, M., et al., J. Biol. Chem. 270:14394–14398 (1995); DeAlmeida, V. and Mayo, K., Mol. Endo. 12:750–765 (1998)) joined to Glu-182 (FIG. 3B). COS-7 cells were transfected in 24-well plates when the cells were 85 to 95% of confluency, using 200 ng of plasmid DNA that was purified by cesium chloride/ethidium bromide gradient centrifugation for each well. Assays were conducted 72 to 96 hours after transfection. Under these conditions about ˜20% of the COS-7 cells become transfected and express about 5×10^6 surface PTH receptors per cell (Bergwitz, C., et al., J. Biol. Chem. 272:28861–28868)).
as §1
Experiments utilized COS-7 cells transfected with either the intact rat PTH-1 receptor (rWT-HA, FIG. 4A) or a truncated rat PTH-1 receptor with most of the amino-terminal extracellular domain deleted (rΔNt, FIG. 4B).

rat secretin receptor = target: T3, rat secretin receptor (Rattus norvegicus, UniProt P23811); experiment: cAMP response in COS-7 cells transfected with the rat secretin receptor; details: secretin(1–27) 1 mM; COS-7 cells transfected with the secretin receptor
T3 construct: expressed in transfected cells; host or cells: COS-7, transient
T3 sequence (P23811 26-449): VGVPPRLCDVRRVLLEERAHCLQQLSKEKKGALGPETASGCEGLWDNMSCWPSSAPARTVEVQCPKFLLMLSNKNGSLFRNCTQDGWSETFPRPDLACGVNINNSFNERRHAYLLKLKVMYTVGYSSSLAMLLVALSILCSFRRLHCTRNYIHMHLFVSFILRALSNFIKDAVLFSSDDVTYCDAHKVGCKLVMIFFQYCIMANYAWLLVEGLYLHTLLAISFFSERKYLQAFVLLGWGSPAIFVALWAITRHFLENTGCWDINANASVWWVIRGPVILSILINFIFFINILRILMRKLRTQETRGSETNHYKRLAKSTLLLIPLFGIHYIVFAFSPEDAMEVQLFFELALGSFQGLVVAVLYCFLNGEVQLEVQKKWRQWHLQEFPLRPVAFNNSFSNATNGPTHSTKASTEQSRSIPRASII
Description: FIG. 6. Specificity of the Truncated Ligand and PTH Receptor. COS-7 cells transiently transfected with either rWT-HA (A), rΔNt (B), or the intact rat secretin receptor (C), were treated with the indicated peptides for 60 min at 22° C., and the resulting intracellular cAMP levels were quantified by RIA. […] 1 mM and secretin(1–13), 100 mM. Shown are data (mean±s.e.m.) from one experiment performed in duplicate, and this was repeated twice more with equivalent results.
as §1
In order to test whether PTH(1–14) and rΔNt retained the appropriate recognition specificity for the corresponding parent ligand, cross-reactivity experiments were done using secretin ligands and the cloned rat secretin receptor. […] Cells expressing rΔNt responded to PTH(1–34) and PTH(1–14) but not to secretin(1–27) (1 mM) or secretin(1–13) ([…]) (FIG. 5B). Thus, the recognition specificity of PTH(1–14) and rΔNt appear to replicate that of the intact parent molecules. No evidence for relaxed specificity was detected in these studies (FIG. 6).

## PH(1–13): Amino-terminal peptide fragment based on the rat PTH sequence, residues 1–13, C-terminally amidated (AVSEIQLMHNLGK-NH2)
Human PTH-1 receptor
  increase in cAMP accumulation (in words): little or no increase

## PTH(1–15): Amino-terminal peptide fragment based on the rat PTH sequence, residues 1–15, C-terminally amidated (AVSEIQLMHNLGKHL-NH2)
Human PTH-1 receptor
  doses required for cAMP activation compared with the dose required for PTH(1–34): five to six orders of magnitude higher
Human PTH-1 receptor; 60 min at 22° C.
  increase in intracellular cAMP levels relative to the basal cAMP level: about 20 fold

## secretin(1–13): truncated secretin ligand used in cross-reactivity experiments (HSDGTFTSELSRL; not fully specified (C-terminus); ends and bridges not checked; UniProt P09683 28-40, looked up, fragment)
[1]
  cAMP response of cells expressing rΔNt (in words): not

## secretin(1–27): secretin ligand used in cross-reactivity experiments
[1]
  cAMP response of cells expressing rΔNt (in words): not
Rat secretin receptor
  increase in cAMP levels: 50 fold
